In paper PMC7570948 (2020):

T1: CCR7-eGFP stably expressed on 300-19 pre-B cells (human, UniProt P32248 25-378)
T1 chain: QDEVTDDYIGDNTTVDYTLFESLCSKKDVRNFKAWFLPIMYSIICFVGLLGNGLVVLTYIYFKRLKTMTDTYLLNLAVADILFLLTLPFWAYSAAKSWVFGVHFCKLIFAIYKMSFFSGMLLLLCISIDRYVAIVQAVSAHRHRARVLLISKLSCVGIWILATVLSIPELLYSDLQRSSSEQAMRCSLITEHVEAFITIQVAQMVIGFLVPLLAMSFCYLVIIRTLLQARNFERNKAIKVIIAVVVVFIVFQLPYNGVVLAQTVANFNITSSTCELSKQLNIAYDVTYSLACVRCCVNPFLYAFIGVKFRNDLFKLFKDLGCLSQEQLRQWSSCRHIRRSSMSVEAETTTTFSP

B1: CXCL14 (synthetic, unlabeled human CXCL14) (ligand)
chain: SKCKCSRKGPKIRYSDVKKLEMKPKYPHCEEKMVIITTKSVSRYRGQEHCLHPKLQSTKRFIKWYNAWNEKRRVYEE
B2: CCL19 (synthetic, unlabeled human CCL19) (ligand)
chain: GTNDAEDCCLSVTQKPIPGYIVRNFHYLLIKDGCRVPAVVFTTLRGRQLCAPPDQPWVERIIQRLQRTSAKMKRRSS

How the values were obtained:
[1] = target: T1, CCR7-eGFP stably expressed on 300-19 …; assay: FACS; 37°C, competition with 25 nM CCL19-Dy649P1 (printed as EC50; partial inhibition)
[2] = target: T1, CCR7-eGFP stably expressed on 300-19 …; assay: FACS; 10°C, competition with 25 nM CCL19-Dy649P1 (printed as EC50)
[3] = target: T1, CCR7-eGFP stably expressed on 300-19 …; assay: FACS; 37°C, competition with 25 nM CCL19-Dy649P1 (printed as EC50)

Row | Binder | IC50 [1] | IC50 [2] | IC50 [3]
1 | B1 | 9.2 nM | – | –
2 | B2 | – | 10.1 nM | 14.1 nM
